Target: T1, extracellular domain (residues 21-643) of the human ErbB3 receptor (Homo sapiens, UniProt P21860)
T1 construct: ErbB3 receptor (HER3), human, extracellular domain, residues 21-643; The ErbB3 gene fragment is followed by a hexahistidine tag and a FLAG-tag; also called HER3; extracellular domain of ErbB3; source: CHO-T-HC cells, transfected (pEE vector), purified from culture fluid (HisTrap HP, Superdex 200 SEC)
Assay: SPR; Biacore T200; ErbB3 extracellular domain immobilised on CM5 chip by amine coupling; BCD090-M2 injected at 1 uM down to 0.49 nM in 10 mM HEPES pH 7.4, 0.15 M NaCl, 50 ug/ml BSA; 37°C; equilibrium fit of response against concentration; mean of three experiments
Details: both partners purified

T1 sequence (P21860 21-643): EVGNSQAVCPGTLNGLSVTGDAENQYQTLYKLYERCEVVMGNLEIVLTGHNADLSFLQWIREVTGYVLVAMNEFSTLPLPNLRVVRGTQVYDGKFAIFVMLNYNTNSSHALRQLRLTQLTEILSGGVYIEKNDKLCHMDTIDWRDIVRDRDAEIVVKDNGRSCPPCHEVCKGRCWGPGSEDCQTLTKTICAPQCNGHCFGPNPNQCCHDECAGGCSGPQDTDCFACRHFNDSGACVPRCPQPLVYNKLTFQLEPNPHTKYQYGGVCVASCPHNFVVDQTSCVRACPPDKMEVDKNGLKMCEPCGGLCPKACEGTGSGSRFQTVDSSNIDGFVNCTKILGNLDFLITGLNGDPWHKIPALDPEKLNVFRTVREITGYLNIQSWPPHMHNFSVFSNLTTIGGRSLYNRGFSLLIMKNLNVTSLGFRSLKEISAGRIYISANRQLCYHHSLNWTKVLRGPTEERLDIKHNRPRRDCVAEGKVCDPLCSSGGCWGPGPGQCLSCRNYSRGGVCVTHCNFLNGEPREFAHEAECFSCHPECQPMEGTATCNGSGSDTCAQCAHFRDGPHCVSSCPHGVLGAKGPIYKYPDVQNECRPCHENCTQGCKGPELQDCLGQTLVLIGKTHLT

B1: llama VHH antibody BCD090-M2 (VHH)
VHH: QVQLVQSGGGLVQAGGSLRLSCAFSGRTFSMYTMGWFRQAPGKEREFVAANRGRGLSPDIADSVNGRFTISRDNAKNTLYLQMDSLKPEDTAVYYCAADLQYGSSWPQRSSAEYDYWGQGTTVTVSS
notes: 128 residues in the PDB entries; a single additional N-terminal glycine is left from the TEV recognition site; Selected by phage display from immunized llamas; also called VHH fragment of the antibody BCD090-M2; not shown: His6, N-terminal, cleaved; SUMO, N-terminal, cleaved
Work on B1 yielded a Kd of 15 ± 1 nM.

Reference: PMC6097396, “Crystal structures of a llama VHH antibody BCD090-M2 targeting human ErbB3 receptor” (F1000Research, 2018)
